Assay results as given in the supplement of paper PMC10567573.

B1: TRIB1 (parent)
chain: EIGTSDQIVPEYQEDSDISSFFC

Variants of: B1
Experiment: protein stability index of a GFP-peptide fusion (GPS, HEK-293T) (PSI 1-6); higher = more stable
Settings: c terminus: native
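Also: lentivirally expressed fusions sorted by FACS into six bins by GFP to DsRed ratio, PSI derived from sequencing read proportions per bin multiplied by bin number.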

First: EIGTSDQIVPEGQEDSDISSFFC [Y12G]
Second: EIGTSDQIVPEIQEDSDISSFFC [Y12I]
The protein stability index of the first is higher: 3.27 for the first, 2.91 for the second.

First: EIGTSDQIVPEDQEDSDISSFFC [Y12D]
Second: EIGTSDQIVPETQEDSDISSFFC [Y12T]
The protein stability index of the first is higher: 5.11 for the first, 4.48 for the second.

Compared with EIGTSDQIVPEHQEDSDISSFFC [Y12H], EIGTSDQIVPEVQEDSDISSFFC [Y12V] is lower in protein stability index: 4.37 for the first, 3.07 for the second.

Compared with EIGTSDQIVPESQEDSDISSFFC [Y12S], EIGTSDQIVPEQQEDSDISSFFC [Y12Q] is higher in protein stability index: 4.19 for the first, 4.51 for the second.

Compared with EIGTSDQIVPEFQEDSDISSFFC [Y12F], EIGTSDQIVPENQEDSDISSFFC [Y12N] is higher in protein stability index: 3.07 for the first, 5.03 for the second.

Compared with EIGTSDQIVPEAQEDSDISSFFC [Y12A], EIGTSDQIVPEWQEDSDISSFFC [Y12W] is lower in protein stability index: 3.25 for the first, 2.44 for the second.

First: EIGTSDQIVPEPQEDSDISSFFC [Y12P]
Second: EIGTSDQIVPEKQEDSDISSFFC [Y12K]
The protein stability index of the first is lower: 3.4 for the first, 5.54 for the second.

First: EIGTSDQIVPEMQEDSDISSFFC [Y12M]
Second: EIGTSDQIVPELQEDSDISSFFC [Y12L]
The protein stability index of the first is lower: 2.12 for the first, 3.06 for the second.

Compared with EIGTSDQIVPERQEDSDISSFFC [Y12R], EIGTSDQIVPECQEDSDISSFFC [Y12C] is lower in protein stability index: 4.61 for the first, 3.68 for the second.

First: EIGTSDQIVPEEQEDSDISSFFC [Y12E]
Second: EIGTSDQIHPEYQEDSDISSFFC [V9H]
The protein stability index of the first is lower: 4.77 for the first, 5.32 for the second.

Going from EIGTSDQIAPEYQEDSDISSFFC [V9A] to EIGTSDQIPPEYQEDSDISSFFC [V9P], the protein stability index rises from 5.16 to 5.38.

Going from EIGTSDQIRPEYQEDSDISSFFC [V9R] to EIGTSDQIWPEYQEDSDISSFFC [V9W], the protein stability index falls from 4.88 to 4.34.

Compared with EIGTSDQITPEYQEDSDISSFFC [V9T], EIGTSDQIIPEYQEDSDISSFFC [V9I] is lower in protein stability index: 5.53 for the first, 4.93 for the second.

Going from EIGTSDQIQPEYQEDSDISSFFC [V9Q] to EIGTSDQICPEYQEDSDISSFFC [V9C], the protein stability index falls from 5.78 to 5.31.

First: EIGTSDQIYPEYQEDSDISSFFC [V9Y]
Second: EIGTSDQIEPEYQEDSDISSFFC [V9E]
The protein stability index of the first is lower: 5.2 for the first, 5.74 for the second.

Going from EIGTSDQINPEYQEDSDISSFFC [V9N] to EIGTSDQIGPEYQEDSDISSFFC [V9G], the protein stability index falls from 5.57 to 5.29.

First: EIGTSDQIDPEYQEDSDISSFFC [V9D]
Second: EIGTSDQIKPEYQEDSDISSFFC [V9K]
The protein stability index of the first is higher: 5.51 for the first, 5.49 for the second.

Compared with EIGTSDQIMPEYQEDSDISSFFC [V9M], EIGTSDQILPEYQEDSDISSFFC [V9L] is lower in protein stability index: 5.12 for the first, 4.95 for the second.

Compared with EIGTSDQIFPEYQEDSDISSFFC [V9F], EIGTSDQISPEYQEDSDISSFFC [V9S] is higher in protein stability index: 4.94 for the first, 5.26 for the second.

Going from EIGTSPQIVPEYQEDSDISSFFC [D6P] to EIGTSAQIVPEYQEDSDISSFFC [D6A], the protein stability index rises from 4.84 to 4.92.

Going from EIGTSWQIVPEYQEDSDISSFFC [D6W] to EIGTSKQIVPEYQEDSDISSFFC [D6K], the protein stability index rises from 4.11 to 5.18.

First: EIGTSFQIVPEYQEDSDISSFFC [D6F]
Second: EIGTSRQIVPEYQEDSDISSFFC [D6R]
The protein stability index of the first is lower: 4.14 for the first, 5.04 for the second.

First: EIGTSSQIVPEYQEDSDISSFFC [D6S]
Second: EIGTSTQIVPEYQEDSDISSFFC [D6T]
The protein stability index of the first is higher: 5.45 for the first, 5.07 for the second.

Going from EIGTSVQIVPEYQEDSDISSFFC [D6V] to EIGTSGQIVPEYQEDSDISSFFC [D6G], the protein stability index rises from 4.57 to 5.55.

Compared with EIGTSLQIVPEYQEDSDISSFFC [D6L], EIGTSEQIVPEYQEDSDISSFFC [D6E] is higher in protein stability index: 4.45 for the first, 4.77 for the second.

Compared with EIGTSMQIVPEYQEDSDISSFFC [D6M], EIGTSQQIVPEYQEDSDISSFFC [D6Q] is higher in protein stability index: 4.3 for the first, 5.04 for the second.

First: EIGTSYQIVPEYQEDSDISSFFC [D6Y]
Second: EIGTSIQIVPEYQEDSDISSFFC [D6I]
The protein stability index of the first is higher: 4.65 for the first, 4.07 for the second.

Going from EIGTSNQIVPEYQEDSDISSFFC [D6N] to EIGTSCQIVPEYQEDSDISSFFC [D6C], the protein stability index rises from 4.69 to 4.7.

Compared with EIGTSHQIVPEYQEDSDISSFFC [D6H], EIGTSDQIVPPYQEDSDISSFFC [E11P] is lower in protein stability index: 4.9 for the first, 3.5 for the second.

Compared with EIGTSDQIVPHYQEDSDISSFFC [E11H], EIGTSDQIVPGYQEDSDISSFFC [E11G] is lower in protein stability index: 3.79 for the first, 2.25 for the second.

Compared with EIGTSDQIVPQYQEDSDISSFFC [E11Q], EIGTSDQIVPDYQEDSDISSFFC [E11D] is lower in protein stability index: 3.12 for the first, 2.18 for the second.

First: EIGTSDQIVPCYQEDSDISSFFC [E11C]
Second: EIGTSDQIVPWYQEDSDISSFFC [E11W]
The protein stability index of the first is lower: 2.61 for the first, 4.16 for the second.

Going from EIGTSDQIVPNYQEDSDISSFFC [E11N] to EIGTSDQIVPSYQEDSDISSFFC [E11S], the protein stability index rises from 3.08 to 3.1.

First: EIGTSDQIVPLYQEDSDISSFFC [E11L]
Second: EIGTSDQIVPVYQEDSDISSFFC [E11V]
The protein stability index of the first is higher: 4.33 for the first, 2.52 for the second.

Going from EIGTSDQIVPTYQEDSDISSFFC [E11T] to EIGTSDQIVPYYQEDSDISSFFC [E11Y], the protein stability index rises from 2.77 to 3.46.

First: EIGTSDQIVPFYQEDSDISSFFC [E11F]
Second: EIGTSDQIVPIYQEDSDISSFFC [E11I]
The protein stability index of the first is higher: 3.63 for the first, 3.43 for the second.

Compared with EIGTSDQIVPRYQEDSDISSFFC [E11R], EIGTSDQIVPAYQEDSDISSFFC [E11A] is higher in protein stability index: 3.68 for the first, 4.09 for the second.

First: EIGTSDQIVPKYQEDSDISSFFC [E11K]
Second: EIGTSDQIVPMYQEDSDISSFFC [E11M]
The protein stability index of the first is higher: 4.4 for the first, 3.43 for the second.

Compared with EIGTSDQIVPEYEEDSDISSFFC [Q13E], EIGTSDQIVPEYFEDSDISSFFC [Q13F] is lower in protein stability index: 2.77 for the first, 1.81 for the second.

Compared with EIGTSDQIVPEYAEDSDISSFFC [Q13A], EIGTSDQIVPEYKEDSDISSFFC [Q13K] is higher in protein stability index: 2.54 for the first, 3.39 for the second.

Compared with EIGTSDQIVPEYCEDSDISSFFC [Q13C], EIGTSDQIVPEYDEDSDISSFFC [Q13D] is higher in protein stability index: 2.59 for the first, 2.9 for the second.

Going from EIGTSDQIVPEYLEDSDISSFFC [Q13L] to EIGTSDQIVPEYNEDSDISSFFC [Q13N], the protein stability index falls from 2.77 to 1.9.

First: EIGTSDQIVPEYHEDSDISSFFC [Q13H]
Second: EIGTSDQIVPEYGEDSDISSFFC [Q13G]
The protein stability index of the first is higher: 2.24 for the first, 2.13 for the second.

EIGTSDQIVPEYIEDSDISSFFC [Q13I] and EIGTSDQIVPEYMEDSDISSFFC [Q13M] are the same in protein stability index: 2.36 for the first, 2.36 for the second.

Going from EITTSDQIVPEYQEDSDISSFFC [G3T] to EIYTSDQIVPEYQEDSDISSFFC [G3Y], the protein stability index falls from 3.01 to 2.38.

Going from EIQTSDQIVPEYQEDSDISSFFC [G3Q] to EISTSDQIVPEYQEDSDISSFFC [G3S], the protein stability index falls from 2.7 to 2.57.

First: EIPTSDQIVPEYQEDSDISSFFC [G3P]
Second: EIVTSDQIVPEYQEDSDISSFFC [G3V]
The protein stability index of the first is higher: 2.97 for the first, 2.78 for the second.

Compared with EILTSDQIVPEYQEDSDISSFFC [G3L], EIRTSDQIVPEYQEDSDISSFFC [G3R] is higher in protein stability index: 2.29 for the first, 2.31 for the second.

Work on EIWTSDQIVPEYQEDSDISSFFC [G3W] yielded a protein stability index of 2.18.
